According to IntAct's records for PubMed 20969867:

How the values were obtained:
kmt2a_human KMT2A [1] = biological target: kmt2a_human KMT2A (UniProt Q03164)
kmt2a_human KMT2A [2] = biological target: kmt2a_human KMT2A (UniProt Q03164); remark: listed apart in the source
kmt2a_human KMT2A [3] = biological target: kmt2a_human KMT2A (UniProt Q03164); remark: listed apart in the source
kmt2a_human KMT2A [4] = biological target: kmt2a_human KMT2A (UniProt Q03164); remark: listed apart in the source
kmt2a_human KMT2A [5] = biological target: kmt2a_human KMT2A (UniProt Q03164); remark: listed apart in the source
kmt2a_human KMT2A [6] = biological target: kmt2a_human KMT2A (UniProt Q03164); remark: listed apart in the source
kmt2a_human KMT2A [7] = biological target: kmt2a_human KMT2A (UniProt Q03164); remark: listed apart in the source

Chain of kmt2a_human KMT2A (Q03164 whole entry): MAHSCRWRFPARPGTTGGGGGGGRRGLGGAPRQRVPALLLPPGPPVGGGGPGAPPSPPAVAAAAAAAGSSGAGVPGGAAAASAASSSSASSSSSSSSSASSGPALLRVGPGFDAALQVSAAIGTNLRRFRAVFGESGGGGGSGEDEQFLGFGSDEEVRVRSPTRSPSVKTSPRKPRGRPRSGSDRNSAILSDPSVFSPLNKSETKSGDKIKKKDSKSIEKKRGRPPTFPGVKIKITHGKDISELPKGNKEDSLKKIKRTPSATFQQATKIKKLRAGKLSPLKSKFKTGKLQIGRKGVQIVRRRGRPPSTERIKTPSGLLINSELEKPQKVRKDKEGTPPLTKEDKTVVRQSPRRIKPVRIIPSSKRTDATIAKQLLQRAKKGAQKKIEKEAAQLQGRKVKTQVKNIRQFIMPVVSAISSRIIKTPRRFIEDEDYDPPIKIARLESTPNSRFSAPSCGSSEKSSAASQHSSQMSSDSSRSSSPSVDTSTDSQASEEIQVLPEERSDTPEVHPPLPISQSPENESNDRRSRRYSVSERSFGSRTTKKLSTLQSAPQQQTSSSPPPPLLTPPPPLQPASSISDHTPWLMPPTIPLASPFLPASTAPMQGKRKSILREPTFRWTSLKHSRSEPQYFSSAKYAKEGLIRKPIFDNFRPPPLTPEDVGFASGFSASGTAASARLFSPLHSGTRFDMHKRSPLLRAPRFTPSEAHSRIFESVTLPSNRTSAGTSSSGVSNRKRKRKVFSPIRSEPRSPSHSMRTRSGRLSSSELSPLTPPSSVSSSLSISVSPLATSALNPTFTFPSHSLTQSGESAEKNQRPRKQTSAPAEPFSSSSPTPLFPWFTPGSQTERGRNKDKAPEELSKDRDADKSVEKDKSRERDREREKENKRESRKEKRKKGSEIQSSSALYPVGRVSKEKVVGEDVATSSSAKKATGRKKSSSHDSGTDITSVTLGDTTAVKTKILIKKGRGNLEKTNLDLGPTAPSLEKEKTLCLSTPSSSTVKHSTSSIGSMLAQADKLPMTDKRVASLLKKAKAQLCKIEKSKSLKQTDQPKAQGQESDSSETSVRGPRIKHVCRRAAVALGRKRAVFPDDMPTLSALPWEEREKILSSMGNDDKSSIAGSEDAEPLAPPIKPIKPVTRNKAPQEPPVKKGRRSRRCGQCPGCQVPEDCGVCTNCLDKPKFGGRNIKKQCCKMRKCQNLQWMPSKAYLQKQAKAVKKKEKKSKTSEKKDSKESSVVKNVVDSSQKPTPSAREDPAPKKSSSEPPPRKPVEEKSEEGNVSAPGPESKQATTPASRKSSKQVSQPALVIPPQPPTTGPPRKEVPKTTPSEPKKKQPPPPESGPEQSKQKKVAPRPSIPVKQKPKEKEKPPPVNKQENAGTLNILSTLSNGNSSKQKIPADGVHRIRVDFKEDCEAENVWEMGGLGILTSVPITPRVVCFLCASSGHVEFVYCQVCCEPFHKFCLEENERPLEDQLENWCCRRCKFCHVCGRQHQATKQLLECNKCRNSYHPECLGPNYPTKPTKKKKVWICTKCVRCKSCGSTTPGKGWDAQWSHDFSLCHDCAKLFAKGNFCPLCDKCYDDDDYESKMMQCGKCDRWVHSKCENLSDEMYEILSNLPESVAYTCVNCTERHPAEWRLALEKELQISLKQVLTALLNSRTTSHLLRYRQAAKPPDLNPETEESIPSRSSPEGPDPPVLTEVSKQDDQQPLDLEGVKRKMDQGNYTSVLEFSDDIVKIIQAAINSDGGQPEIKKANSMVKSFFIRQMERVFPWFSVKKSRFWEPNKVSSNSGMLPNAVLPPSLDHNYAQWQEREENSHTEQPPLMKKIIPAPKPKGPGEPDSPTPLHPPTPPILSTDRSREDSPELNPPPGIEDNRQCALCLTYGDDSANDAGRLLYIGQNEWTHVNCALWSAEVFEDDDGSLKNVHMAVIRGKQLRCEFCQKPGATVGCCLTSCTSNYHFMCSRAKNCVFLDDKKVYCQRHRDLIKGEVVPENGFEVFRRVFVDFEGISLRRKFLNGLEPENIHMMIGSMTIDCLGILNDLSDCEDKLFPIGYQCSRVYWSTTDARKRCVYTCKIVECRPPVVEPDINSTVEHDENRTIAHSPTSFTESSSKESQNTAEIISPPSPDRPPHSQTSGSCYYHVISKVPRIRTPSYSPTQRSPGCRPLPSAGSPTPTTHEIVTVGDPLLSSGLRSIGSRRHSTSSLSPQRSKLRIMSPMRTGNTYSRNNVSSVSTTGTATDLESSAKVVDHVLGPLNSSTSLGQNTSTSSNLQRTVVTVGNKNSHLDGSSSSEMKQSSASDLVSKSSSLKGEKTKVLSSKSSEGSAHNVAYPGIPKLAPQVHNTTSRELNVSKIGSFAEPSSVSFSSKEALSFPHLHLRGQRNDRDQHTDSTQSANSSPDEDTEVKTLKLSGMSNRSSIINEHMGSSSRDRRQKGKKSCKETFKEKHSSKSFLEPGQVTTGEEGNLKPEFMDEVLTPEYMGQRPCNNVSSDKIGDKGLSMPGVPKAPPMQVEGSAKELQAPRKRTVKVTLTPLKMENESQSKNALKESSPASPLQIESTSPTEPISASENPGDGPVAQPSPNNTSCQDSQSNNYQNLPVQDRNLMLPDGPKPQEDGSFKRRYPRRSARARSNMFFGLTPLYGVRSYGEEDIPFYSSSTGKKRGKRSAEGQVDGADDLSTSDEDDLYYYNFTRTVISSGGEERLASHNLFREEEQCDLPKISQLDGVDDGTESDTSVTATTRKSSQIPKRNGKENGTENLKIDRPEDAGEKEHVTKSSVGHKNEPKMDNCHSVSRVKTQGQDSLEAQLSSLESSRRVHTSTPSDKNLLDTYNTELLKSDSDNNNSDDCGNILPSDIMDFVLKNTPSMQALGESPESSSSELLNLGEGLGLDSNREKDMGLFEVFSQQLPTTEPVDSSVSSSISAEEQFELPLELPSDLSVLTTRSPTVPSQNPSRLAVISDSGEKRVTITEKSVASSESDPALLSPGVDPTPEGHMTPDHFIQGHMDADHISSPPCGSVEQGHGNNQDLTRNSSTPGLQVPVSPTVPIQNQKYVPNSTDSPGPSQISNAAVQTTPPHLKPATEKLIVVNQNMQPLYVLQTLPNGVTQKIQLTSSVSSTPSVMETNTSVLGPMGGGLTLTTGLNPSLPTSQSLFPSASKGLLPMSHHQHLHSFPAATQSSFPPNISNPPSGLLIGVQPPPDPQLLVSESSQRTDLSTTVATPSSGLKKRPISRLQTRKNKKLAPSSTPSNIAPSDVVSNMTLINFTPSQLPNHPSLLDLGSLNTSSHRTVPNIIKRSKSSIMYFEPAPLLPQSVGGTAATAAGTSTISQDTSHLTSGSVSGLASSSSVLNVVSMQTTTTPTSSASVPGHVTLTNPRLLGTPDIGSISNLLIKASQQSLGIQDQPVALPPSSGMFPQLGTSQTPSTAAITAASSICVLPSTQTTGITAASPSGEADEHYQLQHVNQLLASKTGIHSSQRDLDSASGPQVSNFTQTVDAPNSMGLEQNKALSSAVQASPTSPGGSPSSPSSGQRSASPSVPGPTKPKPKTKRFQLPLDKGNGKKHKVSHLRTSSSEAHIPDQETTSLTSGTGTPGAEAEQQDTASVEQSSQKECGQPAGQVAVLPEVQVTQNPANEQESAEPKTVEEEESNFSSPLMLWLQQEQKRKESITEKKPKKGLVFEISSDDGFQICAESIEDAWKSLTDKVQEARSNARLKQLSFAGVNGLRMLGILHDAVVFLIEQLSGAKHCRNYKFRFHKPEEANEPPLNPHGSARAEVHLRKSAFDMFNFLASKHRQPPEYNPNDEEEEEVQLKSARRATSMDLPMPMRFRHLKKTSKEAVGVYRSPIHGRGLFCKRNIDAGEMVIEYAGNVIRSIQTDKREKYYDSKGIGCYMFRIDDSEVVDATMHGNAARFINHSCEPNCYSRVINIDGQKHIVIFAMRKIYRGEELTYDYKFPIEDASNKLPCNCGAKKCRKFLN

Substance: Histone lysine acetyltransferase CREBBP (Mus musculus), P45481 F612A
- effect of a mutation on the interaction (kmt2a_human KMT2A [1]): decreasing interaction

Substance: Histone lysine acetyltransferase CREBBP (Mus musculus), P45481 L628A
- effect of a mutation on the interaction (kmt2a_human KMT2A [2]): disrupting interaction
- effect of a mutation on the interaction (kmt2a_human KMT2A [3]): decreasing interaction

Substance: Histone lysine acetyltransferase CREBBP (Mus musculus), P45481 L664A
- effect of a mutation on the interaction (kmt2a_human KMT2A [4]): decreasing interaction

Substance: Histone lysine acetyltransferase CREBBP (Mus musculus), P45481 R624A
- effect of a mutation on the interaction (kmt2a_human KMT2A [5]): decreasing interaction

Substance: Histone lysine acetyltransferase CREBBP (Mus musculus), P45481 R668A
- effect of a mutation on the interaction (kmt2a_human KMT2A [6]): decreasing interaction

Substance: Histone lysine acetyltransferase CREBBP (Mus musculus), P45481 Y631A
- effect of a mutation on the interaction (kmt2a_human KMT2A [7]): decreasing interaction
